{
  "source": "the supplement of paper PMC10567573",
  "parents": {"B1": {"name": "ZNF649 (parent)", "chain": "LVAHQRYHTGKTPFVCPECGQPCS"}},
  "data": [
    {"variants_of": "B1", "assay": "protein stability index of a GFP-peptide fusion (GPS, HEK-293T) (PSI 1-6); higher = more stable", "details": "c terminus: a fixed tail appended", "values": [
      {"variant": "LVAHQRYHTGETPFVCPECGQPCS", "note": "[K11E]", "protein stability index": 3.67},
      {"variant": "LVAHQRYHTGGTPFVCPECGQPCS", "note": "[K11G]", "protein stability index": 3.45},
      {"variant": "LVAHQRYHTGRTPFVCPECGQPCS", "note": "[K11R]", "protein stability index": 3.75},
      {"variant": "LVAHQRYHTGNTPFVCPECGQPCS", "note": "[K11N]", "protein stability index": 3.48},
      {"variant": "LVAHQRYHTGITPFVCPECGQPCS", "note": "[K11I]", "protein stability index": 3.31},
      {"variant": "LVAHQRYHTGWTPFVCPECGQPCS", "note": "[K11W]", "protein stability index": 2.91},
      {"variant": "LVAHQRYHTGSTPFVCPECGQPCS", "note": "[K11S]", "protein stability index": 3.77},
      {"variant": "LVAHQRYHTGMTPFVCPECGQPCS", "note": "[K11M]", "protein stability index": 3.31},
      {"variant": "LVAHQRYHTGQTPFVCPECGQPCS", "note": "[K11Q]", "protein stability index": 3.67},
      {"variant": "LVAHQRYHTGDTPFVCPECGQPCS", "note": "[K11D]", "protein stability index": 3.45},
      {"variant": "LVAHQRYHTGVTPFVCPECGQPCS", "note": "[K11V]", "protein stability index": 4.02},
      {"variant": "LVAHQRYHTGYTPFVCPECGQPCS", "note": "[K11Y]", "protein stability index": 3.07},
      {"variant": "LVAHQRYHTGFTPFVCPECGQPCS", "note": "[K11F]", "protein stability index": 2.81},
      {"variant": "LVAHQRYHTGATPFVCPECGQPCS", "note": "[K11A]", "protein stability index": 3.98},
      {"variant": "LVAHQRYHTGHTPFVCPECGQPCS", "note": "[K11H]", "protein stability index": 3.35},
      {"variant": "LVAHQRYHTGLTPFVCPECGQPCS", "note": "[K11L]", "protein stability index": 3.49},
      {"variant": "LVAHQRYHTGPTPFVCPECGQPCS", "note": "[K11P]", "protein stability index": 3.06},
      {"variant": "LVAHQRYHTGCTPFVCPECGQPCS", "note": "[K11C]", "protein stability index": 3.39},
      {"variant": "LVAHQRYHTGTTPFVCPECGQPCS", "note": "[K11T]", "protein stability index": 3.19},
      {"variant": "LVAHQRYHTGKKPFVCPECGQPCS", "note": "[T12K]", "protein stability index": 3.15},
      {"variant": "LVAHQRYHTGKRPFVCPECGQPCS", "note": "[T12R]", "protein stability index": 2.91},
      {"variant": "LVAHQRYHTGKQPFVCPECGQPCS", "note": "[T12Q]", "protein stability index": 2.68},
      {"variant": "LVAHQRYHTGKLPFVCPECGQPCS", "note": "[T12L]", "protein stability index": 2.96},
      {"variant": "LVAHQRYHTGKDPFVCPECGQPCS", "note": "[T12D]", "protein stability index": 3.06},
      {"variant": "LVAHQRYHTGKCPFVCPECGQPCS", "note": "[T12C]", "protein stability index": 3.01},
      {"variant": "LVAHQRYHTGKIPFVCPECGQPCS", "note": "[T12I]", "protein stability index": 3.7},
      {"variant": "LVAHQRYHTGKFPFVCPECGQPCS", "note": "[T12F]", "protein stability index": 2.77},
      {"variant": "LVAHQRYHTGKWPFVCPECGQPCS", "note": "[T12W]", "protein stability index": 2.96},
      {"variant": "LVAHQRYHTGKSPFVCPECGQPCS", "note": "[T12S]", "protein stability index": 3.5},
      {"variant": "LVAHQRYHTGKGPFVCPECGQPCS", "note": "[T12G]", "protein stability index": 3.04},
      {"variant": "LVAHQRYHTGKMPFVCPECGQPCS", "note": "[T12M]", "protein stability index": 3.12},
      {"variant": "LVAHQRYHTGKYPFVCPECGQPCS", "note": "[T12Y]", "protein stability index": 3.02},
      {"variant": "LVAHQRYHTGKNPFVCPECGQPCS", "note": "[T12N]", "protein stability index": 3.39},
      {"variant": "LVAHQRYHTGKPPFVCPECGQPCS", "note": "[T12P]", "protein stability index": 3.2},
      {"variant": "LVAHQRYHTGKVPFVCPECGQPCS", "note": "[T12V]", "protein stability index": 3.13},
      {"variant": "LVAHQRYHTGKEPFVCPECGQPCS", "note": "[T12E]", "protein stability index": 3.86},
      {"variant": "LVAHQRYHTGKAPFVCPECGQPCS", "note": "[T12A]", "protein stability index": 3.49},
      {"variant": "LVAHQRYHTGKHPFVCPECGQPCS", "note": "[T12H]", "protein stability index": 2.56},
      {"variant": "LVAHQRYHTGKTPFLCPECGQPCS", "note": "[V15L]", "protein stability index": 3.2},
      {"variant": "LVAHQRYHTGKTPFPCPECGQPCS", "note": "[V15P]", "protein stability index": 3.77},
      {"variant": "LVAHQRYHTGKTPFHCPECGQPCS", "note": "[V15H]", "protein stability index": 2.4},
      {"variant": "LVAHQRYHTGKTPFNCPECGQPCS", "note": "[V15N]", "protein stability index": 3.51},
      {"variant": "LVAHQRYHTGKTPFICPECGQPCS", "note": "[V15I]", "protein stability index": 2.74},
      {"variant": "LVAHQRYHTGKTPFGCPECGQPCS", "note": "[V15G]", "protein stability index": 3.03},
      {"variant": "LVAHQRYHTGKTPFDCPECGQPCS", "note": "[V15D]", "protein stability index": 3.83},
      {"variant": "LVAHQRYHTGKTPFKCPECGQPCS", "note": "[V15K]", "protein stability index": 2.42},
      {"variant": "LVAHQRYHTGKTPFCCPECGQPCS", "note": "[V15C]", "protein stability index": 2.88},
      {"variant": "LVAHQRYHTGKTPFECPECGQPCS", "note": "[V15E]", "protein stability index": 3.66},
      {"variant": "LVAHQRYHTGKTPFFCPECGQPCS", "note": "[V15F]", "protein stability index": 2.76},
      {"variant": "LVAHQRYHTGKTPFACPECGQPCS", "note": "[V15A]", "protein stability index": 3.33},
      {"variant": "LVAHQRYHTGKTPFMCPECGQPCS", "note": "[V15M]", "protein stability index": 3.3},
      {"variant": "LVAHQRYHTWKTPFVCPECGQPCS", "note": "[G10W]", "protein stability index": 3.9},
      {"variant": "LVAHQRYHTYKTPFVCPECGQPCS", "note": "[G10Y]", "protein stability index": 2.82},
      {"variant": "LVAHQRYHTTKTPFVCPECGQPCS", "note": "[G10T]", "protein stability index": 3.01},
      {"variant": "LVAHQRYHTSKTPFVCPECGQPCS", "note": "[G10S]", "protein stability index": 2.4},
      {"variant": "LVAHQRYHTVKTPFVCPECGQPCS", "note": "[G10V]", "protein stability index": 2.85},
      {"variant": "LVAHQRYHTGKTIFVCPECGQPCS", "note": "[P13I]", "protein stability index": 2.76},
      {"variant": "LVAHQRYHTGKTNFVCPECGQPCS", "note": "[P13N]", "protein stability index": 3.64},
      {"variant": "LVAHQRYHTGKTAFVCPECGQPCS", "note": "[P13A]", "protein stability index": 2.94},
      {"variant": "LVAHQRYHTGKTEFVCPECGQPCS", "note": "[P13E]", "protein stability index": 3.7},
      {"variant": "LVAHQRYHTGKTYFVCPECGQPCS", "note": "[P13Y]", "protein stability index": 3.26},
      {"variant": "LVAHQRYHTGKTRFVCPECGQPCS", "note": "[P13R]", "protein stability index": 3.31},
      {"variant": "LVAHQRYHTGKTLFVCPECGQPCS", "note": "[P13L]", "protein stability index": 2.62},
      {"variant": "LVAHQRYHTGKTDFVCPECGQPCS", "note": "[P13D]", "protein stability index": 3.46},
      {"variant": "LVAHQRYHTGKTQFVCPECGQPCS", "note": "[P13Q]", "protein stability index": 3.32},
      {"variant": "LVAHQRYHTGKTVFVCPECGQPCS", "note": "[P13V]", "protein stability index": 3.32},
      {"variant": "LVAHQRYHTGKTMFVCPECGQPCS", "note": "[P13M]", "protein stability index": 3.27},
      {"variant": "LVAHQRYHTGKTWFVCPECGQPCS", "note": "[P13W]", "protein stability index": 3.63},
      {"variant": "LVAHQRYHTGKTSFVCPECGQPCS", "note": "[P13S]", "protein stability index": 3.65},
      {"variant": "LVAHQRYHTGKTFFVCPECGQPCS", "note": "[P13F]", "protein stability index": 2.8},
      {"variant": "LVAHQRYHTGKTKFVCPECGQPCS", "note": "[P13K]", "protein stability index": 3.36},
      {"variant": "LVAHQRYHTGKTHFVCPECGQPCS", "note": "[P13H]", "protein stability index": 3.36},
      {"variant": "LVAHQRYHTGKTCFVCPECGQPCS", "note": "[P13C]", "protein stability index": 2.71},
      {"variant": "LVAHQRYHTGKTGFVCPECGQPCS", "note": "[P13G]", "protein stability index": 2.94},
      {"variant": "LVAHQRYHTGKTTFVCPECGQPCS", "note": "[P13T]", "protein stability index": 4.15},
      {"variant": "LVAHQRYHTGKTPIVCPECGQPCS", "note": "[F14I]", "protein stability index": 3.61},
      {"variant": "LVAHQRYHTGKTPDVCPECGQPCS", "note": "[F14D]", "protein stability index": 4.18},
      {"variant": "LVAHQRYHTGKTPVVCPECGQPCS", "note": "[F14V]", "protein stability index": 3.81},
      {"variant": "LVAHQRYHTGKTPSVCPECGQPCS", "note": "[F14S]", "protein stability index": 3.93},
      {"variant": "LVAHQRYHTGKTPMVCPECGQPCS", "note": "[F14M]", "protein stability index": 3.25},
      {"variant": "LVAHQRYHTGKTPEVCPECGQPCS", "note": "[F14E]", "protein stability index": 4.44},
      {"variant": "LVAHQRYHTGKTPKVCPECGQPCS", "note": "[F14K]", "protein stability index": 3.28},
      {"variant": "LVAHQRYHTGKTPPVCPECGQPCS", "note": "[F14P]", "protein stability index": 3.58},
      {"variant": "LVAHQRYHTGKTPGVCPECGQPCS", "note": "[F14G]", "protein stability index": 4.1},
      {"variant": "LVAHQRYHTGKTPHVCPECGQPCS", "note": "[F14H]", "protein stability index": 3.02},
      {"variant": "LVAHQRYHTGKTPWVCPECGQPCS", "note": "[F14W]", "protein stability index": 3.1},
      {"variant": "LVAHQRYHTGKTPAVCPECGQPCS", "note": "[F14A]", "protein stability index": 3.94},
      {"variant": "LVAHQRYHTGKTPTVCPECGQPCS", "note": "[F14T]", "protein stability index": 4.22},
      {"variant": "LVAHQRYHTGKTPRVCPECGQPCS", "note": "[F14R]", "protein stability index": 3.38},
      {"variant": "LVAHQRYHTGKTPCVCPECGQPCS", "note": "[F14C]", "protein stability index": 3.65},
      {"variant": "LVAHQRYHTGKTPQVCPECGQPCS", "note": "[F14Q]", "protein stability index": 3.38},
      {"variant": "LVAHQRYHTGKTPYVCPECGQPCS", "note": "[F14Y]", "protein stability index": 3},
      {"variant": "LVAHQRYHTGKTPLVCPECGQPCS", "note": "[F14L]", "protein stability index": 3.7},
      {"variant": "LVAHQRYHTGKTPNVCPECGQPCS", "note": "[F14N]", "protein stability index": 3.7}
    ]}
  ]
}
